Experimental data reported in paper PMC5596342, “Activity-Related Conformational Changes in D,D-Carboxypeptidases Revealed by In Vivo Periplasmic Förster Resonance Energy Transfer Assay in Escherichia coli” (mBio, 2017).

Target: the molecule itself
Test: FRET or BRET; spectrum-based periplasmic FRET (mNG donor, mCh acceptor, spectral unmixing, acceptor FRET efficiency EfA) in E. coli grown in Gb1 at 28°C, induced with 15 µM IPTG, fixed with 2.8% formaldehyde and 0.04% glutaraldehyde, measured in PBS in a spectrofluorimeter; where indicated cells treated with 2 µg/ml amdinocillin or 1 µg/ml aztreonam during induction; cut-off for interaction EfA above 1.4%

Protein	EfA (acceptor FRET efficiency) [%]
PBP6a (D,D-carboxypeptidase, dacC), fusions mNG-PBP6a and mCh-PBP6a (enzyme, Escherichia coli, UniProt P08506 28-400, looked up, PBP6a (dacC) of Escherichia coli; construct details in Text S7 and S8; One molecule for the two differently tagged copies; also called FP-PBP6a; source: E. coli, expressed from plasmids pSAV057 and pTHV037 (15 µM IPTG), in the periplasm of fixed cells; not shown: mNeonGreen (donor copy) or mCherry (acceptor copy), N-terminal, kept) AEQTVEAPSVDARAWILMDYASGKVLAEGNADEKLDPASLTKIMTSYVVGQALKADKIKLTDMVTVGKDAWATGNPALRGSSVMFLKPGDQVSVADLNKGVIIQSGNDACIALADYVAGSQESFIGLMNGYAKKLGLTNTTFQTVHGLDAPGQFSTARDMALLGKALIHDVPEEYAIHKEKEFTFNKIRQPNRNRLLWSSNLNVDGMKTGTTAGAGYNLVASATQGDMRLISVVLGAKTDRIRFNESEKLLTWGFRFFETVTPIKPDATFVTQRVWFGDKSEVNLGAGEAGSVTIPRGQLKNLKASYTLTEPQLTAPLKKGQVVGTIDFQLNGKSIEQRPLIVMENVEEGGFFGRVWDFVMMKFHQWFGSWFS	3.2
PBP6a^S66G active-site mutant, fusions mNG-PBP6a^S66G and mCh-PBP6a^S66G (enzyme, Escherichia coli, UniProt P08506 28-400, looked up, PBP6a (dacC) of Escherichia coli with the active-site serine 66 changed to glycine; One molecule for the two differently tagged copies; source: E. coli, expressed from plasmids pSAV057 and pTHV037, in the periplasm of fixed cells; not shown: mNeonGreen (donor copy) or mCherry (acceptor copy), N-terminal, kept) AEQTVEAPSVDARAWILMDYASGKVLAEGNADEKLDPAGLTKIMTSYVVGQALKADKIKLTDMVTVGKDAWATGNPALRGSSVMFLKPGDQVSVADLNKGVIIQSGNDACIALADYVAGSQESFIGLMNGYAKKLGLTNTTFQTVHGLDAPGQFSTARDMALLGKALIHDVPEEYAIHKEKEFTFNKIRQPNRNRLLWSSNLNVDGMKTGTTAGAGYNLVASATQGDMRLISVVLGAKTDRIRFNESEKLLTWGFRFFETVTPIKPDATFVTQRVWFGDKSEVNLGAGEAGSVTIPRGQLKNLKASYTLTEPQLTAPLKKGQVVGTIDFQLNGKSIEQRPLIVMENVEEGGFFGRVWDFVMMKFHQWFGSWFS	3.8
PBP5 (D,D-carboxypeptidase, dacA), fluorescent-protein fusions mNG-PBP5 and mCh-PBP5 (enzyme, Escherichia coli, UniProt P0AEB2 30-403, looked up, PBP5 (dacA) of Escherichia coli; the FP is fused to the N terminus; construct details in Text S7 and S8; One molecule for the two differently tagged copies (mNG-PBP5 and mCh-PBP5), each chain carrying only one of the two fluorescent proteins; PDB 5J8X is a soluble form that lacks the C-terminal helix; also called FP-PBP5; source: E. coli, expressed from plasmid pSAV057 or pTHV037 (15 µM IPTG), in …) DDLNIKTMIPGVPQIDAESYILIDYNSGKVLAEQNADVRRDPASLTKMMTSYVIGQAMKAGKFKETDLVTIGNDAWATGNPVFKGSSLMFLKPGMQVPVSQLIRGINLQSGNDACVAMADFAAGSQDAFVGLMNSYVNALGLKNTHFQTVHGLDADGQYSSARDMALIGQALIRDVPNEYSIYKEKEFTFNGIRQLNRNGLLWDNSLNVDGIKTGHTDKAGYNLVASATEGQMRLISAVMGGRTFKGREAESKKLLTWGFRFFETVNPLKVGKEFASEPVWFGDSDRASLGVDKDVYLTIPRGRMKDLKASYVLNSSELHAPLQKNQVVGTINFQLDGKTIEQRPLVVLQEIPEGNFFGKIIDYIKLMFHHWFG	2
PBP5^S44G active-site mutant, fusions mNG-PBP5^S44G and mCh-PBP5^S44G (enzyme, Escherichia coli, UniProt P0AEB2 30-403, looked up, PBP5 (dacA) of Escherichia coli with the active-site change of Ser to Gly at position 44; One molecule for the two differently tagged copies; also called FP-PBP5^S44G; source: E. coli ΔdacA strain, expressed from plasmids pSAV057 and pTHV037, in the periplasm of fixed cells; not shown: mNeonGreen (donor copy) or mCherry (acceptor copy), N-terminal, kept) DDLNIKTMIPGVPQIDAESYILIDYNSGKVLAEQNADVRRDPAGLTKMMTSYVIGQAMKAGKFKETDLVTIGNDAWATGNPVFKGSSLMFLKPGMQVPVSQLIRGINLQSGNDACVAMADFAAGSQDAFVGLMNSYVNALGLKNTHFQTVHGLDADGQYSSARDMALIGQALIRDVPNEYSIYKEKEFTFNGIRQLNRNGLLWDNSLNVDGIKTGHTDKAGYNLVASATEGQMRLISAVMGGRTFKGREAESKKLLTWGFRFFETVNPLKVGKEFASEPVWFGDSDRASLGVDKDVYLTIPRGRMKDLKASYVLNSSELHAPLQKNQVVGTINFQLDGKTIEQRPLVVLQEIPEGNFFGKIIDYIKLMFHHWFG	5.4
PBP6b^S63G active-site mutant, fusions mNG-PBP6b^S63G and mCh-PBP6b^S63G (enzyme, Escherichia coli, UniProt P33013 22-388, looked up, PBP6b (dacD) of Escherichia coli with the active-site serine 63 changed to glycine; One molecule for the two differently tagged copies; source: E. coli, expressed from plasmids pSAV057 and pTHV037, in the periplasm of fixed cells; not shown: mNeonGreen (donor copy) or mCherry (acceptor copy), N-terminal, kept) AENIPFSPQPPEIHAGSWVLMDYTTGQILTAGNEHQQRNPAGLTKLMTGYVVDRAIDSHRITPDDIVTVGRDAWAKDNPVFVGSSLMFLKEGDRVSVRDLSRGLIVDSGNDACVALADYIAGGQRQFVEMMNNYAEKLHLKDTHFETVHGLDAPGQHSSAYDLAVLSRAIIHGEPEFYHMYSEKSLTWNGITQQNRNGLLWDKTMNVDGLKTGHTSGAGFNLIASAVDGQRRLIAVVMGADSAKGREEEARKLLRWGQQNFTTVQILHRGKKVGTERIWYGDKENIDLGTEQEFWMVLPKAEIPHIKAKYTLDGKELTAPISAHQRVGEIELYDRDKQVAHWPLVTLESVGEGSMFSRLSDYFHHKA	2
